Results published in the nanobody polyreactivity screen of Harvey et al. (2022).

Assay: yeast display, Sf9 membrane polyspecificity reagent, FACS + sequencing; frameworks hold sequencing errors
Summary of the method: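 Nanobodies from a synthetic yeast display library (Saccharomyces cerevisiae BJ5465), induced 36–48 hours with galactose, were stained 1 hour at 4 °C with 10% biotinylated, detergent-solubilized Sf9 membrane reagent, enriched on streptavidin microbeads, then FACS-sorted. Anti-HA (expression) and streptavidin (reagent binding) fluorescence set low and high (top ~1%) gates. Polyreactivity labels come from the gate of origin. Genes were colony-PCR amplified, MiSeq 2 × 250 sequenced and filtered by CDR length.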

| Sequence | polyreactivity (PSR sort gate) |
| --- | --- |
| QVQLVESGGGLVQAGGSLRLSCAASGRTFARYAMGWYRPAPGKERELVASITRTGGSTYYADSVKGRFTISRDNAKNTVYFQLNSLKPEDTAVYDCATQSWKVRSKMDYWGQGTQVTVSS | high polyreactivity |
| QVQLVESGGGLVQAGGSLRLSCAASGRTFARYARGWYRPAPGKERELVAAISSSGGSTYYADSVKGRFTISRDNAKNTVYLQMNSLKPEDTSVYYCVTYRNWWYDYWGQGTQVTVSS | high polyreactivity |
| QVQLVESGGGLVQAGGSLRLSCAASGRTFASNAMGWSRQAPGKERELVAAITRGGSTNYADSVKGRFTISRDNAKNTVYLQMNSLKPEDTAVYYCAARLSSGFRSYYYWGQGTQVTVSS | high polyreactivity |
| QVQLVESGGGLVQAGGSLRLSCAASGRTFASNDMGWYRQAPGKERELVADINNGARTYYADSVKGRFTISRDNAKNTVYLQMNSLKPEDTAVYYCNTRSGFYLGDFDYWGQGTQVTVSS | high polyreactivity |
| QVQLVESGGGLVQAGGSLRLSCAASGRTFASYAMGWYRQAPGKERELVAGITSGGNTYYADSVKGRFTISRDNAKNTVYLQMNSLKPEDTAVYYCAADRVYLGLFRYEYWGQGTQVTVSS | high polyreactivity |
| QVQLVESGGGLVQAGGSLRLSCAASGRTFASYDMGWYRQAPGKEREVVAVIRSGGSTKYADSVKGRFTISRDNAKNTVYLQMNSLKPEDTAVYYCARTYAKTYLSVYLFYYWGQGTQVTVSS | low polyreactivity |
| QVQLVESGGGLVQAGGSLRLSCAASGRTFATNAMGWYRQAPGKERELVADISGGGSTYYADSVKGRFTISRDNAKNTVYLQMNSLKPEDTAVYYCAARDYHWFQWYDYWGQGTQVTVSS | low polyreactivity |
| QVQLVESGGGLVQAGGSLRLSCAASGRTFATNAMGWYSQAPGKERELVAGINGSGSTNYADSVKGRFTISRDNAKNTVYLQMNSLKPEDTAVYYCAAYVGLYYRLHYYYWGQGTQVTVSS | low polyreactivity |
| QVQLVESGGGLVQAGGSLRLSCAASGRTFATNARGWYRQAPGKERELVAGINGSGSTNYADSVKGRFTISRDNAKNTVYLQMNSLKPEDTAVYYCAAYVGLYYRLHYYYWGQGTQVTVSS | low polyreactivity |
| QVQLVESGGGLVQAGGSLRLSCAASGRTFAVYAMGWYRQAPGKERELVAAITLGASRTYYADSVKGRFTISRDNAKNTVYLQMNSLKPEDTAVYYCNAVGRRNVDSSLNDYWGQGTQVTVSS | low polyreactivity |
| QVQLVESGGGLVQAGGSLRLSCAASGRTFAWNAMGWYRQAPRKERELVARIRSSGSTYYADSVKGRFTISRDNAKNTVYLQMNSLKPVDTAVYFCAADIRFWYGYYYWGQGTQVTVSS | high polyreactivity |
| QVQLVESGGGLVQAGGSLRLSCAASGRTFAWYAMGRYRQAHGKERELVAVIRRGSGDTYYADSVKARFTISRDNAKNTVYLQMNSLKTEDTAVYYCAAEGRFSFYGGGRTKYSRYDYWGQGTQVTVSS | high polyreactivity |
| QVQLVESGGGLVQAGGSLRLSCAASGRTFAWYAMGWYRQAPGKERELVAAISWSSDTTYYADSVKGRFTITRDNAKNTVYLQMNSLKPEETAVYYCAAVFQGYTRKYYYWGQGTQVTVSS | high polyreactivity |
| QVQLVESGGGLVQAGGSLRLSCAASGRTFAWYAMGWYRQAPGKERELVAVIRRGSGDTYYADSVKGRFTISRDNAKNTVYLQMNSLKPEDTAVYYCAAEGRFSFYGGGRPKYSRYDYWGQGTQVTVSS | high polyreactivity |
| QVQLVESGGGLVQAGGSLRLSCAASGRTFAYNAMGWYRQAPGKERELVAAISRRGGSTFYADSVKGRFTISRDNAKNTVYLQMNSLKPEDTAVYYCARDSYYIGRWLYYWGQGTQVTVSS | high polyreactivity |
| QVQLVESGGGLVQAGGSLRLSCAASGRTFAYNAMGWYRQAPGKERELVAAITFGGGSTYYADSVKGRFTISRDNAKNTVYLQMNSLKPEDTAVYYCTAERGYYYHFGYWGQGTQVTVSS | high polyreactivity |
| QVQLVESGGGLVQAGGSLRLSCAASGRTFAYYAMGWYRQAPGKERELVAAITQSGGRTYYADSVKGRFTISRDNAKNTVYLQMNSLKPEDTAVDYCAARRISGKWEYDYWGQGTQVTVSS | high polyreactivity |
| QVQLVESGGGLVQAGGSLRLSCAASGRTFCSNAMGWYRPAPGKERELVAAISNGDNTYYADSVKGRFTISRDNAKNTVYLQMNSLKPEDTAVYYCNADYTVYDTEYDYWGQGTQVTVSS | low polyreactivity |
| QVQLVESGGGLVQAGGSLRLSCAASGRTFDFYAMGWYRQAPGKERELVAAITFSTGSTTYADSVKGRFTISRDNAKNTVYLQMNSLKPEDTAVYYCGADGDGWWWSYVDRYDYWGQGTQVTVSS | low polyreactivity |
| QVQLVESGGGLVQAGGSLRLSCAASGRTFDFYVMGWYRHAPGKERELVAAISSGGSTNYADSVKGRFTISRDNAKYTVYLQMNSLKPEDTAVYYCAADPSGDYWGQGTQVTVSS | low polyreactivity |
| QVQLVESGGGLVQAGGSLRLSCAASGRTFDGNAMGWYRQAPGKERELVAAISKRGGTTYYADSVKGRFTISRDNAKNTVYLQMNSLKPEDTAVYYCAAPYNTYSYSEGEYWGQGTQVTVSS | low polyreactivity |
| QVQLVESGGGLVQAGGSLRLSCAASGRTFDGNVMGWYRQAPGKERELVAAITASGGRTYYADSVKGRFTISRDNAKNTVYLQMNSLKPEDTAVYFCAADPTYLRTLRFGSYDYWGQGTQVTVSS | high polyreactivity |

| Sequence | polyreactivity (PSR sort gate) |
| --- | --- |
| QVQLVESGGGLVQAGGSLRLSCAASGRTFDGYTMGWYRQAPGKERELVAAIRRSGGSTYYADSVKGRFTISRDNAKNTVYLQINSLNPEDTAVYYCAASWRDIYRHYNVYPYDYWGQGTQVTVSS | low polyreactivity |
| QVQLVESGGGLVQAGGSLRLSCAASGRTFDGYVMGWYRQAPGKERELVAAISWGGSSTYYADSVKGRFTISRDNAKNTVYLQMNSLKPEDTAVYYCAKDTVPYERDYWGQGTQVTVSS | low polyreactivity |
| QVQLVESGGGLVQAGGSLRLSCAASGRTFDINAMGWYRQAPGKERELVAAISGRGGRTYYADSVKGRFTISRDNAKNTVYLQMNSLKPEDSAVYYCAARAQWSSLEYWGQGTQVTVSS | high polyreactivity |
| QVQLVESGGGLVQAGGSLRLSCAASGRTFDLNDMGWYRQAPGKERELVAGINSGGSTKYADSVKGRFTISRDNAKNTVSLQMNSLKPEDTAVYYCATRWPGGSRWPFYLTYDYWGQGTQVTVSS | low polyreactivity |
| QVQLVESGGGLVQAGGSLRLSCAASGRTFDLYAMGWYRQAPGKEREFVAAISWRGGRTYYADSVKGRFTISRDNAKNTVYLQMNSQKPEDTAVYYCAARTGATSRIRFDYWGQGTQVTVSS | low polyreactivity |
| QVQLVESGGGLVQAGGSLRLSCAASGRTFDPNAMGWYRPAPGKERELVAAISSSAGSTYYADSVKGRFTISRDNAKNTVYLQMNSLNPEDPALYFCAAGSGTFVTRYRYGYWGQGTQVTVSS | high polyreactivity |
| QVQLVESGGGLVQAGGSLRLSCAASGRTFDRNAMGWYRQAPGKEREFVAAISYRGASTYADSVKGRFTISRDNAKNTVYLQMNSLKPEDTAVYYCAARVTYYGTSGYYYWGQGTQVTVSS | high polyreactivity |
| QVQLVESGGGLVQAGGSLRLSCAASGRTFDRNAMGWYRQAPGKERELVAAISRGGTTYYADSVKGRFTISRDNAKNTVYLQMNSLKPEDTAVYYCARVGRYRYEWGQGTQVTVSS | high polyreactivity |
| QVQLVESGGGLVQAGGSLRLSCAASGRTFDRNAMGWYRQAPGKERELVAAITSRGGRTYYADSVKGRFTISRDNAKNTVYLQMNSLKPEDTAVYYCNAARGWGYDSWGQGTQVTVSS | high polyreactivity |
| QVQLVESGGGLVQAGGSLRLSCAASGRTFDRNAMGWYRQAPGQERELVAAITSRGGRTYYADSVKGRFTISRDNEKNTVYLQMNSLKPADTAVYYCAADLFSSRVRSNFDYWGQGTQVTVSS | high polyreactivity |
| QVQLVESGGGLVQAGGSLRLSCAASGRTFDRYAMGWYRQAPGKERELVAAITWSGGRTYYADSVKGRFTISRDNAKNTVYLQINSLKPEDTAVYYCAAAPRSYFTSEYWGQGTQVTVSS | low polyreactivity |
| QVQLVESGGGLVQAGGSLRLSCAASGRTFDSNAMGWYRQAPGKERELVAAIYADSVKGRFTISRDNAKNTVYLQMNSLKPEDTAVYYCAAETYSGQTYLGEYDYWGQGTEVTVSS | low polyreactivity |
| QVQLVESGGGLVQAGGSLRLSCAASGRTFDTNAMGWYRQAPGKERELVAAISWSAGRTYYADSVKGRFTISRDNAKNTVYLQMNSLKPEDTAVYYCAARPPFIAYSWQKQGYYWGQGTQVTVSS | low polyreactivity |
| QVQLVESGGGLVQAGGSLRLSCAASGRTFDTYAMGWYRQAPGKEREFVARISYGGGITYYADSVKGRFTISRDNAKNTVYLQMNSLKPEDTAVYYCAARRFRTYDFYYWGQGTQVTVSS | high polyreactivity |
| QVQLVESGGGLVQAGGSLRLSCAASGRTFDVNAMGWYRQAPGKERELVAAIRISGGSTYYADSVKGRFTISRDNAKNTVYLQMNSLKPEDTAVYYCAAYERRYRNAYDYWGQGTQVTVSS | high polyreactivity |
| QVQLVESGGGLVQAGGSLRLSCAASGRTFDVNAMGWYRQAPGKERELVAAITWDGGSTYYADSVKGRFTISRDNAKNTVYLQMNSLKPEDTALYYCAADFIQGAWWYVTYRYTYEYWGQGTQVTVSS | low polyreactivity |
| QVQLVESGGGLVQAGGSLRLSCAASGRTFDVYAMGWYRQAPGKERELVATISYRSARTYYADSVKGRFTISRDNAKNTVYLQMNSLKPEDTAVYYCNAQSWRLYGHCYYWGQGTQVTVSS | high polyreactivity |
| QVQLVESGGGLVQAGGSLRLSCAASGRTFDWNAMGWYRQAPGKERELVAAISGGGGSTYYADSVKGRFTISRDNAKNTVYLQMNSLKPEDTEVYYCATWNYYSYHRYDYWGQGTQVTVSS | high polyreactivity |
| QVQLVESGGGLVQAGGSLRLSCAASGRTFDYNAMGWYRQAPGKERELVAAISGSGTRTFYADSVKGRFTISRDNAKNTVYLQMNSLKPEDTAVYYCAASHGWSKSIFYYWGQGTQVTVSS | high polyreactivity |
| QVQLVESGGGLVQAGGSLRLSCAASGRTFDYNAMGWYRQAPGKERELVAAISSSGGSTYYADSVKGRFTISRDNAKNTVYLQMNSLKPEDTAVYYCDKRRNLWGYEYDSWGQGTQVTVSS | high polyreactivity |
| QVQLVESGGGLVQAGGSLRLSCAASGRTFDYNAMVWYRQAPGKERELVAAISGSGTRTFYADSVKGRFTISRDNAKNTVYLLMNSLKPVDTAVYYCAASHGWSKSIFYYWGQGTQVTVSS | high polyreactivity |
